In test [1] the target is T1, Skp1-FBXW7 complex (Homo sapiens, UniProt Q969H0).
T1 construct: human FBXW7 (residues 263–707); His6 (N, cleaved yes); made in house; host or cells: Escherichia coli
The test can be described thus: Isothermal titration calorimetry of DISC1 peptides. Type of test: binding. The conditions noted are these: for Kd: NANO ITC, 20 mM HEPES-Na (pH 7.4), 200 mM NaCl, 2 mM β-mercaptoethanol, mean ± s.d. from two to three independent measurements, read-out: dissociation constant (KD). How it is done:
Amino-terminal His6 tagged human FBXW7 (residues 263–707) and truncated Skp1 (Schulman et al., 2000) were co-expressed as a dicistronic message in Escherichia coli. The Skp1-FBXW7 complexes were purified by Ni2+-nitrilotriacetic acid (NTA) affinity chromatography followed by tobacco eth virus (TEV) protease cleavage of the His6 tag, and by anion exchange and gel filtration chromatography. For crystallization, the Skp1-FBXW7 complex was concentrated to 48 mg ml^–1 by ultrafiltration in 20 mM HEPES-Na (pH 7.4), 200 mM NaCl and 5 mM dithiothreitol (DTT). The DISC1 peptides were synthesized chemically and purified by HPLC.
All measurements were performed at 25 °C with a NANO ITC System (TA Instruments, New Castle, DE, USA). Protein samples were dialyzed against a solution containing 20 mM HEPES-Na (pH 7.4), 200 mM NaCl, and 2 mM β-mercaptoethanol. Typically, the concentrations of Skp1-FBXW7 and DISC1 peptides were […] and 1 mM, respectively. Titration data were analyzed using the TA Nano Analyze software, and the reported dissociation constants and their standard deviations were derived from two to three independent measurements.
To test whether phosphorylation of both the Thr198 and Ser202 sites in DISC1 is required for binding to FBXW7, we used isothermal titration calorimetry (ITC) to measure the binding affinity of various phosphorylated DISC1 peptides to the Skp1-FBXW7 complex (Supplementary Figure 5). […] Thus, specific interaction of DISC1 with the Skp1-FBXW7 complex requires simultaneous phosphorylation at Thr198 and Ser202 within the DISC1 PD motif.
(In general: Isothermal titration calorimetry measures the heat released or taken up as one component is titrated into another.)

Test [2] deals with DISC1, HEK293 cells. Nature of the test: Endogenous DISC1 protein level in HEK293 cells, western blot. The settings on record: cycloheximide 50 μg ml^–1, Figure 1a, n=3. It counts as cell-based, human. The protocol:
HEK293 cells were sourced from ATCC (CRL-1573) and cultured as described in the manufacturer’s protocol. DMEM (SIGMA) supplemented with 10% fetal bovine serum, 2 mM L-glutamine, […] penicillin-streptomycin at 37 °C in a humidified atmosphere of 5% CO2. The cells were passaged at about 80% confluency. Cells were transfected with plasmid DNA using polyfect transfection reagent (Qiagen) according to the manufacturer’s instructions. HEK293 cells were treated with the pharmacological agents cycloheximide (C7698) and MG132 (M7449) (Sigma-Aldrich) or DISC1 disruptor peptides (custom synthesized by Severn Biotech) as described in the text.
Briefly, detergent-soluble proteins were isolated from cells by disruption in lysis buffer 20 mM Tris-HCl (pH 7.5), 150 mM NaCl, 1 mM Na2EDTA, 1 mM EGTA, 1% triton, 2.5 mM sodium pyrophosphate, 1 mM β-glycerophosphate, 1 mM Na3VO4, 1 μg ml^–1 leupeptin, 10 mM DTT with Roche protease inhibitor, phosSTOP (Roche, 04906837001). Detergent-insoluble proteins were removed by centrifugation at 10 000 g for 10 min, and the soluble fraction was retained. Cell lysates were adjusted to equal protein amount (1 μg μl^–1) using cell lysis buffer. Cell lysates normalized for the protein concentration were incubated with mouse IgG (Millipore, 12487) Protein A agarose beads for 2 h at 4 °C. […] The complexes were analyzed on SDS PAGE. […]
(In western blotting, separated proteins are transferred to a membrane and probed.)

Test [3] deals with purified protein complex containing 6His-FBXW7 and Skp1, Q969H0;P63208. The test can be described thus: peptide array overlay, anti-6His detection, densitometry. The settings on record: read off a plot.
Test [4] concerns purified protein complex containing 6His-FBXW7 and Skp1. The test can be described thus: Peptide array overlay with 6His-FBXW7/Skp1, substitution and truncation analysis. It counts as binding, human. The settings on record: for binding potential for the FBXW7 complex vs dually-phosphorylated control sequence: densitometry of 6His probe. An excerpt:
Peptide libraries were produced by automatic SPOT synthesis and synthesized on continuous cellulose membrane supports on Whatman 50 cellulose membranes using Fmoc-chemistry with the AutoSpot-Robot ASS 222 (Intavis Bioanalytical Instruments, Köln, Germany) as previously described.[17] Phosphorylation of peptide array peptides by constitutively active GSK3 (14-306, Millipore UK) was undertaken as previously described.[18] Phosphorylation was detected using a phospho-serine specific antibody (ab9332, Abcam, UK).
Figure 2 FBXW7 binds DISC1 via a PD motif to regulate turnover of DISC1. (a) HEK293 cells were transfected with FLAG-tagged FBXW7 or FLAG-tagged FBXW7 without the F-Box substrate-binding domain (Δ-F). Lysates were prepared and blotted for DISC1, c-MYC, FLAG and GAPDH. Relative levels of DISC1 expression were calculated (right hand panel). *=P<0.05 as measured by Student’s t-test, n=3 (b) HEK293 cells were transfected with FLAG-FBXW7 and GFP-DISC1 (upper panels) or FLAG-FBXW7 and V5-DISC1 (lower panels). FLAG was immunoprecipitated from cell lysates and blotted for FLAG, GFP and V5. (c) HEK293 cells were transfected with FLAG-DISC1. FLAG was immunoprecipitated from cell lysates and blotted for FLAG and endogenous FBXW7. (d) and (e) Peptide arrays of sequences containing the DISC1 PD were overlayed with a purified protein complex containing 6His-FBXW7 and Skp1. Arrays were then probed for His tag. (f) Sequences of known FBXW7 substrates contain a PD that is also present in DISC1.
Figure 3 Substitution analysis pinpoints novel binding motifs for FBXW7. (a) Peptide array grids containing substitution of residues within the core binding motif domain ^197PTPPGSH^202 (with a range of native and non-native residues) were overlaid with a purified protein complex containing 6His-FBXW7 and Skp1. mD and mE are N-methyl aspartic acid and N-methyl glutamic acids respectively. (d) and (e) are the D-forms of aspartic acid and glutamic acid. (b) Arrays were then probed for 6His and spots that were over 200% of the control identified by densitometry.

Test [5] deals with T2, human FBXW7 (residues 263-707) (human, UniProt Q969H0 263-707).
T2 construct: human FBXW7, residues 263-707; The FBXW7 chain of m1, written alone for the pairs inside the crystal structure; also called Fbw7; source: E. coli, co-expressed with truncated Skp1, purified as the complex; not shown: His6, N-terminal, cleaved
The test can be described thus: crystal structure; Skp1-FBXW7 mixed with a twofold molar excess of the DISC1 peptide; crystallised from 100 mM HEPES-Na (pH 7.4), 1.2 M Li2SO4, hanging drop, 4 °C; one complex in the asymmetric unit. The settings on record: both partners purified.

For test [6], the target named is Skp1-FBXW7 complex (human FBXW7 residues 263-707 with truncated Skp1, His6 tag cleaved) (UniProt Q969H0). The test can be described thus: ITC; 25 °C, NANO ITC System; 20 mM HEPES-Na (pH 7.4), 200 mM NaCl, 2 mM β-mercaptoethanol; Skp1-FBXW7 and DISC1 peptides typically 50 mM and 1 mM (so in the source); two to three independent measurements.
The mark [7] stands for this setting: ITC, 25 °C, pH 7.4, singly phosphorylated peptides.

Several values for one entry are separate records, joined by “and”; a condition that tells them apart may be missing. Identical values can stand only once. Non-standard residues stand in square brackets, D forms with d. Residues, ends and D or L forms follow the SMILES beside them. No end group written: not given here. pT = C[C@@H](OP(=O)(O)O)[C@H](N)C(=O)O; pS = N[C@@H](COP(=O)(O)O)C(=O)O

Results on 15 molecules are retold here after article PMC5984089, “FBXW7 regulates DISC1 stability via the ubiquitin-proteosome system” (Molecular Psychiatry, 2017).

T1 sequence (Q969H0 263-707, one chain of several): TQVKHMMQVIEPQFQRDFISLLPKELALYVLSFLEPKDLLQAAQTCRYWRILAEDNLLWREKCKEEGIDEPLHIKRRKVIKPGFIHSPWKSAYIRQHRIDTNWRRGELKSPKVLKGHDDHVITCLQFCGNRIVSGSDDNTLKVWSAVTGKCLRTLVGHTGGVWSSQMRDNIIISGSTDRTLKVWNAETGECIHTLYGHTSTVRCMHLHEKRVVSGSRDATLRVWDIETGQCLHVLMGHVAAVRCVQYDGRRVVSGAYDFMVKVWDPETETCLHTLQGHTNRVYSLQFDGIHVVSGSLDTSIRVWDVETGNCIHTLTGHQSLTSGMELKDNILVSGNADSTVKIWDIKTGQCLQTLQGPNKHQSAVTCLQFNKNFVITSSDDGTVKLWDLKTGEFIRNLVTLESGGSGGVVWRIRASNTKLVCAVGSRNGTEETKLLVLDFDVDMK
T2 sequence (Q969H0 263-707): as the sequence (Q969H0 263-707, one chain of several) above

In the case of `CC(C)[C@H](NC(=O)[C@H](CCC(=O)O)NC(=O)[C@@H]1CCCN1)C(=O)N1CCC[C@H]1C(=O)N1CCC[C@H]1C(=O)N[C@H](C(=O)N1CCC[C@H]1C(=O)N1CCC[C@H]1C(=O)NCC(=O)N[C@@H](COP(=O)(O)O)C(=O)N[C@@H](Cc1c[nH]cn1)C(=O)N[C@@H](CO)C(=O)N[C@@H](C)C(=O)N[C@@H](Cc1ccccc1)C(=O)N[C@H](C(=O)O)[C@@H](C)O)[C@@H](C)OP(=O)(O)O` [DISC1^193–207/pT198/pS202] (H-PEVPP[pT]PPG[pS]HSAFT-OH), the Kd in test [1] (ITC, 25 °C) stood at 1 ± 0.2 µM.
Still for that read-out and setting: under `C[C@@H](OP(=O)(O)O)[C@H](NC(=O)[C@@H]1CCCN1)C(=O)N1CCC[C@H]1C(=O)N1CCC[C@H]1C(=O)NCC(=O)N[C@@H](COP(=O)(O)O)C(=O)N[C@@H](Cc1c[nH]cn1)C(=O)O` [DISC1^197–203/pT198/pS202] (H-P[pT]PPG[pS]H-OH) stands 17 ± 2 µM.
Regarding `C[C@@H]1C[C@@H]([C@H](O)CC2CC(=O)NC(=O)C2)C(=O)[C@@H](C)C1` [cycloheximide, reference compound], the “endogenous DISC1 level after cycloheximide” value in test [2] is given as “rapidly decreased”.
For “DISC1 peptide (residues 197-203, phosphorylated at Thr198 and Ser202) P197G; pT198d (D-Asp); pS202mE (N-methyl Glu)”, the percent of parent in test [3] was 250 % of control.
The same measure, in the same setting: the result for “DISC1 peptide (residues 197-203, phosphorylated at Thr198 and Ser202) pT198E; pS202d (D-Asp)” reads 210 % of control; that for “DISC1 peptide (residues 197-203, phosphorylated at Thr198 and Ser202) pT198E; pS202mD (N-methyl Asp)”, 230 % of control.
Turning to “DISC1 peptide (residues 197-203, phosphorylated at Thr198 and Ser202) pT198d (D-Asp); pS202mE (N-methyl Glu)”, the percent of parent in test [3] was 220 % of control and 190 % of control.
“DISC1 peptide (residues 197-203, phosphorylated at Thr198 and Ser202) pT198e (D-Glu); pS202mE (N-methyl Glu)”: the percent of parent in test [3] was 210 % of control and 280 % of control.
In the case of “DISC1^193–207/pS202: singly phosphorylated DISC1 peptide (PEVPPTPPG[pS]HSAFT)”, the “measurable enthalpy signal / ITC signal” value in test [1] (setting [7]) was “neither of the singly phosphorylated DISC1^193–207/pT198 and DISC1^193–207/pS202 peptides gave a measurable enthalpy signal”; in test [1] (ITC, 25 °C, pH 7.4; singly phosphorylated peptides; pS202)), “No ITC signal”.
In the case of “DISC1^193–207/pT198: singly phosphorylated DISC1 peptide (PEVPP[pT]PPGSHSAFT)”, the “measurable enthalpy signal / ITC signal” value was “neither of the singly phosphorylated DISC1^193–207/pT198 and DISC1^193–207/pS202 peptides gave a measurable enthalpy signal” in test [1] (setting [7]); “No ITC signal” in test [1] (ITC, 25 °C, pH 7.4; singly phosphorylated peptides; pT198)).
Regarding “GmDPPGmEH [I14, substituted DISC1 PD core peptide GmDPPGmEH]”, in test [4], the “binding potential for the FBXW7 complex vs dually-phosphorylated control sequence” value is given as “more than a twofold increase in binding potential”.
On the same count and under the same terms, under “GmEPPGmEH [I11, substituted DISC1 PD core peptide GmEPPGmEH]” stands “more than a twofold increase in binding potential”.
Turning to PTPPGSH, in test [4] (phosphorylation and truncation analysis), the “association of FBXW7 complex / core binding sequence” value is “minimum core binding sequence within the PD domain”.

B1: DISC1 peptide (residues 193-207, phosphorylated at Thr198 and Ser202) (peptide, UniProt Q9NRI5 193-207, looked up)
peptide: PEVPP[pT]PPG[pS]HSAFT
notes: printed residues: Pro193, Glu194, Val195, Pro196, Pro197, Thr198, Pro199, Pro200, Gly201, Ser202, His203; also called 15-residue core peptide; source: synthetic peptide, purified by HPLC
Turning to B1, the binding result in test [5] is reported as “binds”. This molecule registered a dissociation constant Kd in test [6] of 1 µM.
The molecule P[pT]PPG[pS]H [DISC1 peptide (residues 197-203, phosphorylated at Thr198 and Ser202)] returned a Kd in test [6] of 17 µM.

As a reminder, the Kd is the equilibrium constant for the complex coming apart.
